Data on one molecule can be found in patent US12508311B2, “Fusion protein, and preparation method and use thereof” (SUN YAT-SEN UNIVERSITY, priority 2021, dated 2025).

In this assay the test system is signal pathway KRas/Raf/ERK/c-myc in KRas wild-type cells HT29. In words: Western blot of EGFR downstream signal pathway, HT29. In kind it is cell-based, human. To be noted: 10 and 20 μg/mL, 24 hours, compared with control TKDm. As to the method: • (1) The colorectal cancer cells HCT116 (KRas G13D) and HT29 (KRas wt) were respectively spread in six-well plates, 500,000 cells per well. […] Then, the digestion was stopped with 1 mL of complete culture solution per well, the cell suspension was collected into a 1.5 mL EP tube, and centrifuged at the room temperature and 300 g for 3 minutes to collect cells. The cells were resuspended with 1 mL of PBS, and repeatedly centrifuged once. • (3) The supernatant was removed, 100 μL of lysate was added in each group (item number: P0013G; purchased from Beyotime Biotechnology Company). The cells were lysed on ice, vortically vibrated every 5 minutes, and centrifuged at 4° C. and 12,000 rpm for 30 minutes after being lysed for 30 minutes, and the supernatant was collected in a new 1.5 mL EP tube. • (4) The protein concentration was measured by the BCA method, and 20 μg of protein was taken from each group for SDS denaturation gel electrophoresis, transferred and blocked with 5% skim milk for 1 hour.
(In general: Immunoblotting shows a protein as a band on a membrane.)

B1: TKD: fusion protein: tumour-cell-penetrating peptide BR2, anti-KRas nanobody VHH and lysosome recognition peptide CTM; SEQ ID NO.4 (protein)
chain: RAGLQFPVGRLLRRLLRDVQLQESGGGLVQAGGSLRLSCVASGRTFSTYPTGWFRQAPGKEREFVARINLSGGITNYADSVKGRFTISRDNAKNTVYLQMNSLKPEDTAVYYCGGGSTTWAGGIPTNFDYWGQGTQVTVSSGRKFERQKILDQRFFE
With B1, the “inhibition of activation of EGFR downstream signal pathway KRas/Raf/ERK/c-myc (western blot)” value was “could significantly inhibit the activation of the EGFR downstream signal pathway KRas/Raf/ERK/c-myc”.
